In the supplement of paper PMC10567573:
± gives the standard deviation.

Experiment: protein stability index of a GFP-peptide fusion (GPS, HEK-293T) (PSI 1-6); higher = more stable
Conditions: c terminus: a fixed tail appended
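Note: 24-mer peptide tiles fused after GFP, lentivirally expressed, FACS-sorted into six equal bins by GFP/DsRed ratio, decoded by Illumina sequencing, PSI is the read-weighted mean bin number.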

| Sequence | protein stability index (treatment: DMSO) | protein stability index (treatment: MLN4924 1 uM, 8 h) |
| --- | --- | --- |
| ETIKDLMRQFLRGLDFLHANCIVH [CDK4] | 3.06 ± 0.64 | 3.23 ± 0.56 |
| NPTRQDESIQRIAVHLCNALVCQV [ZER1] | 2.48 ± 0.74 | 2.27 ± 0.16 |
| KKAFVWARNIGFKVNSKKMLGKYN [ACSBG2] | 2.5 ± 0.46 | 2.35 ± 0.38 |
| EVQHLREEKSKQFLDLMETIDKQR [LRRC45] | 4.51 ± 0.32 | 4.49 ± 0.25 |
| IICEAHKVLGNRWAEIAKMLPGRT [MYBL2] | 2.25 ± 0.099 | 2.2 ± 0.16 |
| ARGSIVATYIFIFIGETLLSMNWA [SPNS1] | 3.4 ± 0.55 | 2.88 ± 0.55 |
| HPKPKLVRVLESLLVSLVTTVVVF [CLCN6] | 3.49 ± 0.47 | 3.56 ± 0.25 |
| DQEQGSSFQMSEGSEAAVIPLDLG [FAM189A2] | 5.34 ± 0.35 | 5.48 ± 0.17 |
| TSFSNYYRTWNVVVHDWLYSYVYQ [SOAT2] | 3.11 ± 0.27 | 3.01 ± 0.4 |
| LGAGGGSLLPGAVEQPQPQFISRF [NEK8] | 3.14 ± 0.21 | 3.32 ± 0.46 |
| HLPADSEVTLEANPTSAPGSRLAE [RSAD1] | 5.49 ± 0.077 | 5.39 ± 0.24 |
| DSLTSLQWLQEFSILNAKAPALPP [FOXJ1] | 2.26 ± 0.043 | 2.19 ± 0.075 |
| LQPLSKPLSSQPQAIVTEDKTDIS [MLH1] | 5.31 ± 0.19 | 5.19 ± 0.14 |
| FVQRSGNYFVTMFDDYSATLPLTL [SLC6A17] | 2.65 ± 0.18 | 2.65 ± 0.55 |
| EAANLLIPAVGSSLSEALDLIESD [MYBL2] | 4.81 ± 0.14 | 4.72 ± 0.2 |
| IVATLLILDICEDNVPDPKDVKER [TMEM175] | 2.46 ± 0.67 | 2.49 ± 0.37 |
| LSLNMDNLQDTLEAASFLQILPVL [KLHL13] | 2.66 ± 0.52 | 2.72 ± 0.45 |
| EFPEARIFEETLNILIYETPRGPD [KCTD13] | 2.48 ± 0.15 | 2.5 ± 0.44 |
| SSTGNTALTYACAGGYVDVVKVLL [ANKRD17] | 2.07 ± 0.55 | 2.23 ± 0.3 |
| KLHYPELYVLKGGYKEFFMKCQSY [CDC25A] | 2.42 ± 0.5 | 2.04 ± 0.33 |
| EVQKLVESGVDVNSQNEVNGWTCL [ANKRD40] | 3.43 ± 0.53 | 3.33 ± 0.16 |
| STGTSRWPSAKSAGWTLATLGEQG [SCNN1D] | 3.17 ± 0.16 | 3.16 ± 0.31 |

| Sequence | protein stability index (treatment: DMSO) | protein stability index (treatment: MLN4924 1 uM, 8 h) |
| --- | --- | --- |
| PPSRAPTAAPPPPPPSRPSVAVPP [WASL] | 4.77 ± 0.21 | 4.86 ± 0.21 |
| RSCGGGVTSQERHCLQQRRKSVPG [ADAMTSL2] | 4.58 ± 0.25 | – |
| NSTPLRAACFDGRLDIVKYLVENN [FEM1B] | 2.84 ± 0.19 | 3.01 ± 0.21 |
| ALDERAKVLHEDKQTREQLHSISD [TRIM29] | 5.25 ± 0.27 | 5.31 ± 0.37 |
| QFLNDRLASYLEKVRQLERDNAEL [KRT33B] | 3.18 ± 0.18 | 3.33 ± 0.28 |
| FVRGDHRDNSPFDGPGGNLAHAFQ [MMP1] | 2.34 ± 0.6 | 3.06 ± 0.29 |
| ALAIKVNLCGHWYYSKACCRSCRP [ADAMTSL2] | 2.43 ± 0.38 | 2.77 ± 0.62 |
| MELQKGKGAAAAAAASGAAGGGGG [INTS3] | 5.19 ± 0.43 | 5.26 ± 0.36 |
| LYRDDVLIKPSRVVAILAAACLLQ [GMCL1] | 3.05 ± 0.84 | 2.45 ± 0.18 |
| FSLVGKRAISTSVCVRAHESVVKS [COX4I1] | 2.75 ± 0.14 | 2.94 ± 0.3 |
| ICFCCEEFQPAKCTDKENALKLFP [FAM189A2] | 2.37 ± 0.036 | 2.58 ± 0.25 |
| SKAGPTRIFTSNTHSSVVLQGFDQ [KLHL13] | 3.53 ± 0.32 | 3.32 ± 0.12 |
| LKYENELALRQGVEADINGLRRVL [KRT15] | 3.35 ± 0.23 | 3.6 ± 0.18 |
| SWVSELLWSLFVPFTVYQVRWLRP [AUP1] | 3.12 ± 0.27 | 2.81 ± 0.51 |
| SEEMVKMVLSRPCHPDDQFTTSIL [INTS3] | 2.94 ± 0.34 | 2.98 ± 0.39 |
| AAVKAAREAFPSWSSRSPQERSRV [ALDH8A1] | 3.73 ± 0.23 | 3.88 ± 0.48 |
| KHIPYREHKSLTGTARYMSINTHL [CSNK1G3] | 2.41 ± 0.088 | 2.51 ± 0.32 |
| TKLEAEIVTLRHVLAAKERRCGEL [TPD52L3] | 2.89 ± 0.22 | 2.78 ± 0.35 |
| CHLNGIVHRDLKPENLLLASKSKG [CAMK2D] | 3.52 ± 0.36 | 3.56 ± 0.19 |
| RIDGKLDSPSRSPSKVEVTEKTTT [C2CD2L] | 5.42 ± 0.21 | 5.46 ± 0.11 |
| ESRQTEVVIRDIDERAMELLIDFA [KLHL20] | 2.9 ± 0.095 | 2.96 ± 0.24 |
| RNTPIEALCENFPEEMATYLRYVR [CSNK1G1] | 2.84 ± 0.26 | 2.9 ± 0.56 |

| Sequence | protein stability index (treatment: DMSO) | protein stability index (treatment: MLN4924 1 uM, 8 h) |
| --- | --- | --- |
| WTSFICDTYIVLAWISKIKGSPDV [SMIM2] | 3.52 ± 0.58 | 2.53 ± 0.38 |
| LVHTQEPGEWLELLLEPGSLYILR [ALKBH7] | 2.38 ± 1 | 2.23 ± 0.28 |
| LVGKPKIFIIQACRGNQHDVPVIP [CASP6] | 2.56 ± 0.66 | 2.1 ± 0.2 |
| EQCLPSLENSKYCRFNQDPEAVDE [ATE1] | 5.16 ± 0.45 | 5.16 ± 0.26 |
| ELNGHTQKITAIITFPSLESCEEK [WDR41] | 3.1 ± 0.29 | 3.42 ± 0.42 |
| LALCQRYYHRGHVDPANDTFDIDP [MCOLN1] | 3.11 ± 0.13 | 3.23 ± 0.29 |
| RKSSFAFYQAVRDLLPVWLLEDMR [ANKRD9] | 3.03 ± 0.99 | 2.21 ± 0.38 |
| ANLTPNVGGYFVDKFVATMYHYLQ [P3H4] | 2.38 ± 0.69 | 2.23 ± 0.32 |
| YIPSSYVDSHHEYPAMTFYSPAVM [ESR2] | 2.73 ± 0.93 | 2.6 ± 0.45 |
| VTGMELEFKRLASSKAHTSRFISA [PTPRD] | 2.71 ± 0.33 | 2.81 ± 0.4 |
| EDEDKSEPEQTGADAAEDEEVDVT [RBBP5] | 5.66 ± 0.28 | 5.73 ± 0.31 |
| ESRALSTSSNLGSQYQCENGVSGP [TBX5] | 4.95 ± 0.25 | 5.06 ± 0.21 |
| LESEGSPETLTNLRKGYLFMYNLV [HACD3] | 2.02 ± 0.2 | 1.97 ± 0.27 |
| SINVMKQLIGSSNLFVMQVEMDIY [GMCL1] | 2.98 ± 0.49 | 2.82 ± 0.73 |
| SYFKCVQKEVLPSMRKIVATWMLE [CCND1] | 2.91 ± 0.76 | 2.46 ± 0.37 |
| LHLESELAQTRAEGQRQAQEYEAL [KRT18] | 5.07 ± 0.2 | 5.08 ± 0.26 |
| RRTAENKLDTKYPYVCHAELNAIM [DCTD] | 2.29 ± 0.15 | 2.37 ± 0.49 |
| IWNILDLVVILLSIVAVGFHIFRT [PKD2L1] | 3.15 ± 0.64 | 2.45 ± 0.84 |
| QLRNCLRILMGELSNHHDHHDEFC [BEX3] | 2.28 ± 0.41 | 2.21 ± 0.12 |
| RCGVGVSVLDDLLYAVGGHDGSSY [KLHL20] | 2.36 ± 0.38 | 2.13 ± 0.42 |
| IDCGKAFSQKSCLVAHQRYHTGKT [ZNF649] | 2.83 ± 0.24 | 2.87 ± 0.16 |
